Here are results for five molecules from PMC7855068 (Nature structural & molecular biology, 2020).

The chains are these.
T1: Arp7/Arp9/Rtt102 heterotrimer (S. cerevisiae, UniProt Q12406;Q05123;P53330)
T1 sequence 1: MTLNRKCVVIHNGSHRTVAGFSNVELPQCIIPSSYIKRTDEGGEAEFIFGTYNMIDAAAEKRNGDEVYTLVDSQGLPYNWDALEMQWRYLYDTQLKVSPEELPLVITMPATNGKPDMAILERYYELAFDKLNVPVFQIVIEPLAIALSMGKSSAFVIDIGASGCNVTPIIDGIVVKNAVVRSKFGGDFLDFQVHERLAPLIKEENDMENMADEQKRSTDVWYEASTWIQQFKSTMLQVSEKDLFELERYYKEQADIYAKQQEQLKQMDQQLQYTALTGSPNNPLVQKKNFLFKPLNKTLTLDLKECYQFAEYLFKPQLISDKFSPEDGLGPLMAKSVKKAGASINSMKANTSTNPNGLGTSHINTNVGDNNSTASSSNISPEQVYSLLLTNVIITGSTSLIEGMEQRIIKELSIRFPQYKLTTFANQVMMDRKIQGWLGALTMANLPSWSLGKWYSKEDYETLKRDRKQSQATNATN
T1 sequence 2: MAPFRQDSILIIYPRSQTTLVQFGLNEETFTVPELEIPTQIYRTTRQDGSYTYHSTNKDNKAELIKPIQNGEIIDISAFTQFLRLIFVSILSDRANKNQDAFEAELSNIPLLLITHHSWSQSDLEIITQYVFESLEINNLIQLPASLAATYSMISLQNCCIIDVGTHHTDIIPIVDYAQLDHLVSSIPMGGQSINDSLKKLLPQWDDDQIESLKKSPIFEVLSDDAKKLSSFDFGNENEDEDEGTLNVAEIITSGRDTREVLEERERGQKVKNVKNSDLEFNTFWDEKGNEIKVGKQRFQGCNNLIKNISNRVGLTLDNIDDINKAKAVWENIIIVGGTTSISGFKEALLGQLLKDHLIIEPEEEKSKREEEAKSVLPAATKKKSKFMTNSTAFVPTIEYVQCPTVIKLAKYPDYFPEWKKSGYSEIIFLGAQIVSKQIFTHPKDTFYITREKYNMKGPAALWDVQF
T1 sequence 3: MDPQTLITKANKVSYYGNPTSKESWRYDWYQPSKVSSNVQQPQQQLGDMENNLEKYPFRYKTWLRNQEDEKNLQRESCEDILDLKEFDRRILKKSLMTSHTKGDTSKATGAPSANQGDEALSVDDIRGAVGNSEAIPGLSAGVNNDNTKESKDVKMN

B1: Sth1 (AA 301–1097), truncated ATPase subunit of RSC (domain or fragment)
chain: VRLAEELERQQLLEKRKKERNLHLQKINSIIDFIKERQSEQWSRQERCFQFGRLGASLHNQMEKDEQKRIERTAKQRLAALKSNDEEAYLKLLDQTKDTRITQLLRQTNSFLDSLSEAVRAQQNEAKILHGEEVQPITDEEREKTDYYEVAHRIKEKIDKQPSILVGGTLKEYQLRGLEWMVSLYNNHLNGILADEMGLGKTIQSISLITYLYEVKKDIGPFLVIVPLSTITNWTLEFEKWAPSLNTIIYKGTPNQRHSLQHQIRVGNFDVLLTTYEYIIKDKSLLSKHDWAHMIIDEGHRMKNAQSKLSFTISHYYRTRNRLILTGTPLQNNLPELWALLNFVLPKIFNSAKTFEDWFNTPFANTGTQEKLELTEEETLLIIRRLHKVLRPFLLRRLKKEVEKDLPDKVEKVIKCKLSGLQQQLYQQMLKHNALFVGAGTEGATKGGIKGLNNKIMQLRKICNHPFVFDEVEGVVNPSRGNSDLLFRVAGKFELLDRVLPKFKASGHRVLMFFQMTQVMDIMEDFLRMKDLKYMRLDGSTKTEERTEMLNAFNAPDSDYFCFLLSTRAGGLGLNLQTADTVIIFDTDWNPHQDLQAQDRAHRIGQKNEVRILRLITTDSVEEVILERAMQKLDIDGKVIQAGKFDNKSTAEEQEAFLRRLIESETNRDDDDKAELDDDELNDTLARSADEKILFDKIDKERMNQERADAKAQGLRVPPPRLIQLDELPKVFREDIEEHFKKEDSEPLGRIRQKKRVYYDDGLTEEQFLEAVEDDNMSLEDAIKKRREARERRRLRQ
B2: Rtt102 (natural protein)
chain: T1 sequence 3
B3: Arp7 (natural protein)
chain: T1 sequence 1
B4: HSA peptide (Sth1 residues 316–377) (peptide)
peptide: RKKERNLHLQKINSIIDFIKERQSEQWSRQERCFQFGRLGASLHNQMEKDEQKRIERTAKQR
B5: Arp9 (natural protein)
chain: T1 sequence 2

Test [1] has as its target T1, Arp7/Arp9/Rtt102 heterotrimer. As to the kind of experiment: cryo-EM structure.
The test “Arp9” has as its target B5. As to the kind of experiment: cryo-EM structure.
The target of the test “Arp7” is B3. As to the kind of experiment: cryo-EM structure.
For test [2], the target named is B1. As to the kind of experiment: cryo-EM structure.
Test [3] deals with T1, Arp7/Arp9/Rtt102 heterotrimer. As to the kind of experiment: circular dichroism.

As for B1, in test [1], the binding result is “binds”.

As to B2, the binding result with Arp9 and with Arp7 was “binds” in each case.

As to B3, the binding result in test [2] is “binds”.

Turning to B4, the binding result in test [3] is “binds”.

Consider B5, for which the binding result (with Arp7; in test [2]) was “binds” throughout.
